Test results as given in patent US20150087584A1 (COUNCIL OF SCIENTIFIC AND INDUSTRIAL RESEARCH, published 2015).

Molecular target: bovine trypsin (bovine, UniProt P00760 24-246)
Assay: cell-based or functional assay

Chain of bovine trypsin (P00760 24-246): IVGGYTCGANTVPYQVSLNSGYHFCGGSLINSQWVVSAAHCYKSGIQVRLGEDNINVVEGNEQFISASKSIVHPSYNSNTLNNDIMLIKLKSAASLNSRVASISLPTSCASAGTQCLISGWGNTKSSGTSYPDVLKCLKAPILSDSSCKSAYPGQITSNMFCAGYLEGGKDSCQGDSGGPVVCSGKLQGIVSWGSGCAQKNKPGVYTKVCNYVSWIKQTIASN

Row | Binder | IC50 of inhibition of bovine trypsin activity (BApNA substrate) [µM]
1 | QPICTNSSAGLKGCNYYNADGTFICEGESDPNHPKACPKNCDPNIAYSLC (other) [inhibitory repeat domain IRD-9 of Capsicum annuum Pin-II proteinase inhibitors (CanPIs)] | ~2.2
2 | NRLCTNCCAGRKGCNYYSADGTFICEGESDPNNPKACPRNCDPNIAYSLC (other) [inhibitory repeat domain IRD-12 of Capsicum annuum Pin-II proteinase inhibitors (CanPIs)] | ~65
